Experimental data published in patent US20050164323.

Experiments:
[1] = target: T1, AFRRTSLAGGG (SEQ ID NO: 44)
T1 chain: AFRRTSLAGGG

[2] = target: T2, AKIQASFRGHM (SEQ ID NO: 20)
T2 chain: AKIQASFRGHM

[3] = target: T3, ALGKRTAKYRW (SEQ ID NO: 45)
T3 chain: ALGKRTAKYRW

[4] = target: T4, APKRGSILSKP (SEQ ID NO: 35)
T4 chain: APKRGSILSKP

[5] = target: T5, ATFKKTFKHLL (SEQ ID NO: 24)
T5 chain: ATFKKTFKHLL

[6] = target: T6, DIKRLTPRFTL (SEQ ID NO: 34)
T6 chain: DIKRLTPRFTL

[7] = target: T7, EEPVLTLVDEA (SEQ ID NO: 41)
T7 chain: EEPVLTLVDEA

[8] = target: T8, ETKKQSFKQTG (SEQ ID NO: 33)
T8 chain: ETKKQSFKQTG

[9] = target: T9, FARKGSLRQKN (SEQ ID NO: 6)
T9 chain: FARKGSLRQKN

[10] = target: T10, GKRRPSRLVAL (SEQ ID NO: 58)
T10 chain: GKRRPSRLVAL

[11] = target: T11, GTFRSSIRRLS (SEQ ID NO: 49)
T11 chain: GTFRSSIRRLS

[12] = target: T12, ITRKRSGEAAV (SEQ ID NO: 40)
T12 chain: ITRKRSGEAAV

[13] = target: T13, IYRASYYRKGG (SEQ ID NO: 27)
T13 chain: IYRASYYRKGG

[14] = target: T14, KAFRDTFRLLL (SEQ ID NO: 22)
T14 chain: KAFRDTFRLLL

[15] = target: T15, KFRTPSFLKKS (SEQ ID NO: 26)
T15 chain: KFRTPSFLKKS

[16] = target: T16, KIQASFRGHMA (SEQ ID NO: 18)
T16 chain: KIQASFRGHMA

… (SEQ ID NO: 16) = target: T17, … (SEQ ID NO: 16)
T17 chain: KKRFSFKKSFK

[17] = target: T18, KPFKLSGLSFK (SEQ ID NO: 43)
T18 chain: KPFKLSGLSFK

[18] = target: T19, KRRQISIRGIV (SEQ ID NO: 47)
T19 chain: KRRQISIRGIV

[19] = target: T20, KTRKISQSAQT (SEQ ID NO: 52)
T20 chain: KTRKISQSAQT

[20] = target: T21, KTRRLSAFQQG (SEQ ID NO: 28)
T21 chain: KTRRLSAFQQG

[21] = target: T22, LMRRNSVTPLA (SEQ ID NO: 39)
T22 chain: LMRRNSVTPLA

[22] = target: T23, LRQLRSPRRTQ (SEQ ID NO: 51)
T23 chain: LRQLRSPRRTQ

[23] = target: T24, LSRTLSVAAKK (SEQ ID NO: 19)
T24 chain: LSRTLSVAAKK

[24] = target: T25, MRRSKSPADSA (SEQ ID NO: 37)
T25 chain: MRRSKSPADSA

[25] = target: T26, MYHNSSQKRH (SEQ ID NO: 36)
T26 chain: MYHNSSQKRH

[26] = target: T27, MYRRSYVFQT (SEQ ID NO: 30)
T27 chain: MYRRSYVFQT

[27] = target: T28, NKRRATLPHPG (SEQ ID NO: 53)
T28 chain: NKRRATLPHPG

[28] = target: T29, NKRRGSVPILR (SEQ ID NO: 57)
T29 chain: NKRRGSVPILR

[29] = target: T30, NSRRPSRATWL (SEQ ID NO: 55)
T30 chain: NSRRPSRATWL

[30] = target: T31, PKRPGSVHRTP (SEQ ID NO: 23)
T31 chain: PKRPGSVHRTP

[31] = target: T32, Peptide 1 (FARKGSLRQ), substrate, pseudo-substrate PKC alpha
T32 chain: FARKGSLRQ

[32] = target: T33, Peptide 3 (LKRSLSEM), substrate, Serum Response Factor
T33 chain: LKRSLSEM

[33] = target: T34, Peptide 4 (RTPKLARQASIELPSM), substrate, lymphocyte-specific protein 1
T34 chain: RTPKLARQASIELPSM

[34] = target: T35, QAWSKTTPRRI (SEQ ID NO: 31)
T35 chain: QAWSKTTPRRI

[35] = target: T36, QKKRVSMILQS (SEQ ID NO: 59)
T36 chain: QKKRVSMILQS

[36] = target: T37, QKRPSQRSKYL (SEQ ID NO: 17)
T37 chain: QKRPSQRSKYL

[37] = target: T38, RGFLRSASLGR (SEQ ID NO: 32)
T38 chain: RGFLRSASLGR

[38] = target: T39, RGRSRSAPPNL (SEQ ID NO: 29)
T39 chain: RGRSRSAPPNL

[39] = target: T40, RLRRLTAREAA (SEQ ID NO: 56)
T40 chain: RLRRLTAREAA

[40] = target: T41, RVVGGSLRGAQ (SEQ ID NO: 50)
T41 chain: RVVGGSLRGAQ

[41] = target: T42, SPLRHSFQKQQ (SEQ ID NO: 25)
T42 chain: SPLRHSFQKQQ

[42] = target: T43, SQKRPSQRHGS (SEQ ID NO: 42)
T43 chain: SQKRPSQRHGS

… (SEQ ID NO: 54) = target: T44, … (SEQ ID NO: 54)
T44 chain: SYTRFSLARQV

[43] = target: T45, TRSKGTLRYMS (SEQ ID NO: 38)
T45 chain: TRSKGTLRYMS

[44] = target: T46, VAKRESRGLKS (SEQ ID NO: 21)
T46 chain: VAKRESRGLKS

[45] = target: T47, VVRTDSLKGRR (SEQ ID NO: 46)
T47 chain: VVRTDSLKGRR

[46] = target: T48, WPWQVSLRTRF (SEQ ID NO: 48)
T48 chain: WPWQVSLRTRF

B1: PKC-θ kinase domain (PKC-θ KD; amino acid residues 362 to 706), C-terminal hexa-histidine tag, expressed in E. coli (protein)
chain: MGPELNKERPSLQIKLKIEDFILHKMLGKGSFGKVFLAEFKKTNQFFAIKALKKDVVLMDDDVECTMVEKRVLSLAWEHPFLTHMFCTFQTKENLFFVMEYLNGGDLMYHIQSCHKFDLSRATFYAAEIILGLQFLHSKGIVYRDLKLDNILLDKDGHIKIADFGMCKENMLGDAKTNTFCGTPDYIAPEILLGQKYNHSVDWWSFGVLLYEMLIGQSPFHGQDEEELFHSIRMDNPFYPRWLEKEAKDLLVKLFVREPEKRLGVRGDIRQHPLFREINWEELERKEIDPPFRPKVKSPFDCSNFDKEFLNEKPRLSFADRALINSMDQNMFRNFSFMNPGMERLISHHHHHH
[1]
  phosphorylation of the peptide spot (32P, peptide array): shown to be substrates for PKC-θ
[2]
  phosphorylation of the peptide spot (32P, peptide array): shown to be substrates for PKC-θ
[3]
  phosphorylation of the peptide spot (32P, peptide array): shown to be substrates for PKC-θ
[4]
  phosphorylation of the peptide spot (32P, peptide array): shown to be substrates for PKC-θ
[5]
  phosphorylation of the peptide spot (32P, peptide array): shown to be substrates for PKC-θ
[6]
  phosphorylation of the peptide spot (32P, peptide array): shown to be substrates for PKC-θ
[7]
  phosphorylation of the peptide spot (32P, peptide array): shown to be substrates for PKC-θ
[8]
  phosphorylation of the peptide spot (32P, peptide array): shown to be substrates for PKC-θ
[9]
  phosphorylation of the peptide spot (32P, peptide array): shown to be substrates for PKC-θ
[10]
  phosphorylation of the peptide spot (32P, peptide array): shown to be substrates for PKC-θ
[11]
  phosphorylation of the peptide spot (32P, peptide array): shown to be substrates for PKC-θ
[12]
  phosphorylation of the peptide spot (32P, peptide array): shown to be substrates for PKC-θ
[13]
  phosphorylation of the peptide spot (32P, peptide array): shown to be substrates for PKC-θ
[14]
  phosphorylation of the peptide spot (32P, peptide array): shown to be substrates for PKC-θ
[15]
  phosphorylation of the peptide spot (32P, peptide array): shown to be substrates for PKC-θ
[16]
  phosphorylation of the peptide spot (32P, peptide array): shown to be substrates for PKC-θ
… (SEQ ID NO: 16)
  phosphorylation of the peptide spot (32P, peptide array): shown to be substrates for PKC-θ
[17]
  phosphorylation of the peptide spot (32P, peptide array): shown to be substrates for PKC-θ
[18]
  phosphorylation of the peptide spot (32P, peptide array): shown to be substrates for PKC-θ
[19]
  phosphorylation of the peptide spot (32P, peptide array): shown to be substrates for PKC-θ
[20]
  phosphorylation of the peptide spot (32P, peptide array): shown to be substrates for PKC-θ
[21]
  phosphorylation of the peptide spot (32P, peptide array): shown to be substrates for PKC-θ
[22]
  phosphorylation of the peptide spot (32P, peptide array): shown to be substrates for PKC-θ
[23]
  phosphorylation of the peptide spot (32P, peptide array): shown to be substrates for PKC-θ
[24]
  phosphorylation of the peptide spot (32P, peptide array): shown to be substrates for PKC-θ
[25]
  phosphorylation of the peptide spot (32P, peptide array): shown to be substrates for PKC-θ
[26]
  phosphorylation of the peptide spot (32P, peptide array): shown to be substrates for PKC-θ
[27]
  phosphorylation of the peptide spot (32P, peptide array): shown to be substrates for PKC-θ
[28]
  phosphorylation of the peptide spot (32P, peptide array): shown to be substrates for PKC-θ
[29]
  phosphorylation of the peptide spot (32P, peptide array): shown to be substrates for PKC-θ
[30]
  phosphorylation of the peptide spot (32P, peptide array): shown to be substrates for PKC-θ
[31]
  (kcat/Km)^η, slope of the solvent microviscosity effect, 250 mM NaCl: the slope had a (kcat/Km)^η value of 0.86 in 250 mM NaCl
  kcat/Km: 2.7e+06 M⁻¹ s⁻¹
[32]
  kcat: 21 s⁻¹
  kcat/Km: 51000 M⁻¹ s⁻¹
[33]
  kcat: 14 s⁻¹
  kcat/Km: 58000 M⁻¹ s⁻¹
[34]
  phosphorylation of the peptide spot (32P, peptide array): shown to be substrates for PKC-θ
[35]
  phosphorylation of the peptide spot (32P, peptide array): shown to be substrates for PKC-θ
[36]
  phosphorylation of the peptide spot (32P, peptide array): shown to be substrates for PKC-θ
[37]
  phosphorylation of the peptide spot (32P, peptide array): shown to be substrates for PKC-θ
[38]
  phosphorylation of the peptide spot (32P, peptide array): shown to be substrates for PKC-θ
[39]
  phosphorylation of the peptide spot (32P, peptide array): shown to be substrates for PKC-θ
[40]
  phosphorylation of the peptide spot (32P, peptide array): shown to be substrates for PKC-θ
[41]
  phosphorylation of the peptide spot (32P, peptide array): shown to be substrates for PKC-θ
[42]
  phosphorylation of the peptide spot (32P, peptide array): shown to be substrates for PKC-θ
… (SEQ ID NO: 54)
  phosphorylation of the peptide spot (32P, peptide array): shown to be substrates for PKC-θ
[43]
  phosphorylation of the peptide spot (32P, peptide array): shown to be substrates for PKC-θ
[44]
  phosphorylation of the peptide spot (32P, peptide array): shown to be substrates for PKC-θ
[45]
  phosphorylation of the peptide spot (32P, peptide array): shown to be substrates for PKC-θ
[46]
  phosphorylation of the peptide spot (32P, peptide array): shown to be substrates for PKC-θ
